The text below walks through data of patent publication US20250074942A1, “COMPOSITIONS AND METHODS FOR COVALENT PEPTIDE-BASED MODULATORS OF HLA-E” (Calico Life Sciences LLC, priority 2022, published 2025).

The target of experiment [1] is T1, HLA-E (Homo sapiens, UniProt P13747).
T1 construct: [HLAE(hu)(22-305)]-Avitag]; made in house
The experiment in a line: Binding to HLA-E by Fluorescence Polarization (FP). As to conditions: Table 18. As for the experimental part:
This example describes the analysis of binding of modified VL9 based peptides to HLA-E by Fluorescence Polarization (FP).
Briefly, proteins and VL9 or Qdm derived peptides were produced as described in EXAMPLE 2 and EXAMPLE 3 and binding to HLA-E was measured with Fluorescence Polarization.

Experiment [2] addresses T2, CD94/NKG2A binding to HLA-E (Homo sapiens, UniProt P13747).
T2 construct: [HLAE(hu)(22-305)]-Avitag]; made in house
The experiment in a line: Biolayer interferometry (BLI): inhibition of CD94/NKG2A binding to peptide-loaded HLA-E. Conditions: for BLI result: BLOD = below the limit of detection. The protocol:
Proteins were produced as described in EXAMPLE 2 and peptides were synthesized as described in EXAMPLE 3.
BLI was performed on a ForteBio Octet Red96e instrument. All proteins were diluted in 1× Kinetic Buffer (10× Kinetic buffer, Sartorius 181105) diluted in 1×PBS. A Blocking Buffer step was introduced to lower non-specific binding to the streptavidin (SA) tips by diluting 5% bovine serum albumin (BSA) and 20 μg/mL Biocytin (Sigma B4261) in 1× Kinetic Buffer. Refolded and biotinylated [HLA-E+VL9] complexes were loaded onto SA biosensors (Forte 18-5019) at ˜5 μg/ml (100 nM) with the following steps: 60 sec baseline in 1× Kinetic Buffer, 180 sec loading, 60 sec blocking in Blocking Buffer and 60 sec baseline in 1× Kinetic Buffer, all at 25° C. and 1000 rpm. hSCD and oaFC-hSCD binding to immobilized HLA-E/B2M complexes was monitored at 200 nM by a 90 sec association step, followed by a 120 sec dissociation step. Data correction was performed as follows: first, aligning the data to the average of the last baseline step on the y-axis; second, by aligning the data to the dissociation step for inter-step correction; and third by filtering the data using Savitzky-Golay Filtering.
This example describes the analysis of inhibition of CD94-NKG2A binding to HLA-E by exemplary modified peptides by bio-layer interferometry (BLI).
Briefly, proteins and VL9 or Qdm derived peptides were produced as described in EXAMPLE 2 and EXAMPLE 3. BLI measurements to determine inhibition were performed as described in EXAMPLE 4.
(BLI is a label-free optical method that tracks binding on a fibre tip over time.)

The target in experiment [3] is T1, HLA-E. The experiment in a line: Cross-linking of electrophilic peptides with [HLA-E+VL9], covalently bound HLA-E by LC-MS. It counts as binding. Conditions: peptide in 10-fold excess with [HLA-E+VL9], 4 h at 37° C. The protocol: The Cys peptide variants were equipped with a mSF warhead in a Pd-mediated coupling using Pd oxidative addition complex 1 (FIGS. 6A and 6B) X* indicating position functionalized with the electrophilic warhead). Electrophilic analogs of VL9 were subjected to cross-linking reactions in a 10-fold excess with [HLA-E+VL9] for 4 h at 37° C., and the amount of covalently bound HLA-E was determined by LC-MS as described in EXAMPLE 4.
Briefly, crosslinking reactions were performed as described in EXAMPLE 5.

Where [4] appears, read: Table 13, inhibition of CD94-NKG2A binding to HLA-E.

Where no end group is shown, it is not given here. The star is where a group is joined. FITC = O=C1OC2(c3ccc(O)cc3Oc3cc(O)ccc32)c2ccc(NC(=S)*)cc21; mSF = 3-benzenesulfonyl fluoride, O=S(=O)(F)c1cccc(*)c1

T1 sequence (P13747 22-305): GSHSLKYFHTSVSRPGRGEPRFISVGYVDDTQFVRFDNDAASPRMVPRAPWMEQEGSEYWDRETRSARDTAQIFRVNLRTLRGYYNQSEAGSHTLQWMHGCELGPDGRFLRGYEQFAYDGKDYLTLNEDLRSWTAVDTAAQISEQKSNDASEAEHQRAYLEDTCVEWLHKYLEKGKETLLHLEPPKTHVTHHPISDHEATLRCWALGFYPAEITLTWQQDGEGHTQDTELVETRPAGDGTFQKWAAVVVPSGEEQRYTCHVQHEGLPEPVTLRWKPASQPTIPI
T1 sequence (P61769 21-119 partner): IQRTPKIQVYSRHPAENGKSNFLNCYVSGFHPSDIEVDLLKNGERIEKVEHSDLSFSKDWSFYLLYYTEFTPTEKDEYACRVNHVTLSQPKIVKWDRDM
T2 sequence (P13747 22-305): as the sequence (P13747 22-305) above
T2 sequence (P61769 21-119 partner): as the sequence (P61769 21-119 partner) above

Take “ALCAPRLCL (cysteine pairing not given here) [Peptide P21]”: the FP result in experiment [1] is “Binding”.

In the case of “AMCGALCLF (cysteine pairing not given here) [Peptide P32]”, the FP result in experiment [1] was “Binding”.

As to “Ala-Leu-Cys-Ala-Pro-Arg-Leu-Cys-Leu-Gly-Gly-Lys(FITC) (ALCAPRLCLGGK(FITC); cysteine pairing not given here) [P21(FITC)]”, in experiment [1], the FP result was “Binding”.

Turning to “Ala-Leu-Cys-Arg-Trp-Arg-Cys-Leu-Tyr-Gly-Gly-Lys(FITC) (ALCRWRCLYGGK(FITC); cysteine pairing not given here) [P28(FITC)]”, the FP result in experiment [1] is “Binding”.

As for “Ala-Leu-Cys-Trp-Arg-Val-Pro-Cys-Thr (ALCWRVPCT-NH2; cysteine pairing not given here) [Peptide P20]”, in experiment [1], the FP result is on record as “Binding”.

Consider “Ala-Leu-Cys-Trp-Arg-Val-Pro-Cys-Thr-Gly-Gly-Lys(FITC) (H-ALCWRVPCTGGK(FITC)-NH2; cysteine pairing not given here) [P20(FITC)]”, for which, in experiment [1], the FP result is given as “Binding”.

Consider “Ala-Leu-Cys-Trp-His-Val-Pro-Cys-Gln-Gly-Gly-Lys(FITC) (ALCWHVPCQGGK(FITC); cysteine pairing not given here) [P23(FITC)]”, for which, in experiment [1], the FP result was “Binding”.

Regarding “Ala-Met-Cys-Gly-Ala-Leu-Cys-Leu-Phe-Gly-Gly-Lys(FITC) (AMCGALCLFGGK(FITC); cysteine pairing not given here) [P32(FITC)]”, the FP result in experiment [1] is “Binding”.

On to “Ala-Met-Cys-Gly-Pro-Arg-Cys-Leu-Trp-Gly-Gly-Lys(FITC) (AMCGPRCLWGGK(FITC); cysteine pairing not given here) [P1(FITC)]”, for which the FP result in experiment [1] was “Binding”.

For the substance “Gly-hAr-Nle-hAr-Gln-Mff-Ala-Cha-hAr-Leu [Peptide G1_B9]”, the BLI result in experiment [2] (Table 15, peptides with additional amino acids at the N-terminus) is “inhibition”.

Turning to “Lys(TAMRA)-Nle-hAr-Gln-Mff-Ala-Cha-hAr-Leu [B9_1Lys(TAMRA)]”, the BLI result in experiment [2] (setting [4]) is on record as “inhibition”.

As for “NH2-Cha-hAr-Ala-Leu-hAr-Gln-Met-Mff-hAr-OH [Peptide B5.scrambled]”, the “inhibition of CD94/NKG2A binding (in words)” value in experiment [2] (BLI, CD94-NKG2A 200 nM) is reported as “no inhibition of binding”.

As to “NH2-Cys(mSF)-Met-Ala-Pro-Arg-Thr-Leu-Phe-Leu-OH (H-C(mSF)MAPRTLFL-OH; SMILES CSCC[C@H](NC(=O)[C@@H](N)CSc1cccc(S(=O)(=O)F)c1)C(=O)N[C@@H](C)C(=O)N1CCC[C@H]1C(=O)N[C@@H](CCCNC(=N)N)C(=O)N[C@H](C(=O)N[C@@H](CC(C)C)C(=O)N[C@@H](Cc1ccccc1)C(=O)N[C@@H](CC(C)C)C(=O)O)[C@@H](C)O) [VL9—1Cys(mSF)]”, in experiment [3], the “cross-linking with HLA-E (in words)” value is on record as “no or only trace amounts of cross-linking”.

Regarding “NH2-Val-Cys(mSF)-Ala-Pro-Arg-Thr-Leu-Phe-Leu-OH (H-VC(mSF)APRTLFL-OH; SMILES CC(C)C[C@H](NC(=O)[C@H](Cc1ccccc1)NC(=O)[C@H](CC(C)C)NC(=O)[C@@H](NC(=O)[C@H](CCCNC(=N)N)NC(=O)[C@@H]1CCCN1C(=O)[C@H](C)NC(=O)[C@H](CSc1cccc(S(=O)(=O)F)c1)NC(=O)[C@@H](N)C(C)C)[C@@H](C)O)C(=O)O) [VL9—2Cys(mSF)]”, in experiment [3], the “cross-linking with HLA-E (in words)” value is recorded as “no or only trace amounts of cross-linking”.

On to “NH2-Val-Met-Ala-Cys(mSF)-Arg-Thr-Leu-Phe-Leu-OH (H-VMAC(mSF)RTLFL-OH; SMILES CSCC[C@H](NC(=O)[C@@H](N)C(C)C)C(=O)N[C@@H](C)C(=O)N[C@@H](CSc1cccc(S(=O)(=O)F)c1)C(=O)N[C@@H](CCCNC(=N)N)C(=O)N[C@H](C(=O)N[C@@H](CC(C)C)C(=O)N[C@@H](Cc1ccccc1)C(=O)N[C@@H](CC(C)C)C(=O)O)[C@@H](C)O) [VL9—4Cys(mSF)]”, for which the “amount of covalently bound (cross-linked) HLA-E” value (shortened to “amount of covalently bound”) in experiment [3] is recorded as 36%.

As for “NH2-Val-Met-Ala-Pro-Arg-Cys(mSF)-Leu-Phe-Leu-OH (H-VMAPRC(mSF)LFL-OH; SMILES CSCC[C@H](NC(=O)[C@@H](N)C(C)C)C(=O)N[C@@H](C)C(=O)N1CCC[C@H]1C(=O)N[C@@H](CCCNC(=N)N)C(=O)N[C@@H](CSc1cccc(S(=O)(=O)F)c1)C(=O)N[C@@H](CC(C)C)C(=O)N[C@@H](Cc1ccccc1)C(=O)N[C@@H](CC(C)C)C(=O)O) [VL9—6Cys(mSF)]”, the “cross-linking with HLA-E (in words)” value in experiment [3] is recorded as “no or only trace amounts of cross-linking”.

For “NH2-Val-Met-Ala-Pro-Arg-Thr-Cys(mSF)-Phe-Leu-OH (H-VMAPRTC(mSF)FL-OH; SMILES CSCC[C@H](NC(=O)[C@@H](N)C(C)C)C(=O)N[C@@H](C)C(=O)N1CCC[C@H]1C(=O)N[C@@H](CCCNC(=N)N)C(=O)N[C@H](C(=O)N[C@@H](CSc1cccc(S(=O)(=O)F)c1)C(=O)N[C@@H](Cc1ccccc1)C(=O)N[C@@H](CC(C)C)C(=O)O)[C@@H](C)O) [VL9—7Cys(mSF)]”, the “amount of covalently bound” value in experiment [3] was determined as 22%.

Consider “NH2-Val-Met-Ala-Pro-Arg-Thr-Leu-Cys(mSF)-Leu-OH (H-VMAPRTLC(mSF)L-OH; SMILES CSCC[C@H](NC(=O)[C@@H](N)C(C)C)C(=O)N[C@@H](C)C(=O)N1CCC[C@H]1C(=O)N[C@@H](CCCNC(=N)N)C(=O)N[C@H](C(=O)N[C@@H](CC(C)C)C(=O)N[C@@H](CSc1cccc(S(=O)(=O)F)c1)C(=O)N[C@@H](CC(C)C)C(=O)O)[C@@H](C)O) [VL9—8Cys(mSF)]”, for which the “amount of covalently bound” value in experiment [3] worked out at 87%. In addition, the “able to reduce the binding of CD94-NKG2A to HLA-E (in words)” value in experiment [2] (BLI after a 2 h incubation of [HLA-E+VL9] with the electrophilic peptide) is on record as “not”. In addition, the BLI result in experiment [2] (setting [4]) is “inhibition”.

“NH2-Val-Met-Ala-Pro-Arg-Thr-Leu-Phe-Cys(mSF)-OH (H-VMAPRTLFC(mSF)-OH; SMILES CSCC[C@H](NC(=O)[C@@H](N)C(C)C)C(=O)N[C@@H](C)C(=O)N1CCC[C@H]1C(=O)N[C@@H](CCCNC(=N)N)C(=O)N[C@H](C(=O)N[C@@H](CC(C)C)C(=O)N[C@@H](Cc1ccccc1)C(=O)N[C@@H](CSc1cccc(S(=O)(=O)F)c1)C(=O)O)[C@@H](C)O) [VL9—9Cys(mSF)]”: the “cross-linking with HLA-E (in words)” value in experiment [3] is “no or only trace amounts of cross-linking”.

“NH2-Val-Met-Ala-Pro-Cys(mSF)-Thr-Leu-Phe-Leu-OH (H-VMAPC(mSF)TLFL-OH; SMILES CSCC[C@H](NC(=O)[C@@H](N)C(C)C)C(=O)N[C@@H](C)C(=O)N1CCC[C@H]1C(=O)N[C@@H](CSc1cccc(S(=O)(=O)F)c1)C(=O)N[C@H](C(=O)N[C@@H](CC(C)C)C(=O)N[C@@H](Cc1ccccc1)C(=O)N[C@@H](CC(C)C)C(=O)O)[C@@H](C)O) [VL9—5Cys(mSF)]”: in experiment [3], the “cross-linking with HLA-E (in words)” value is listed as “no or only trace amounts of cross-linking”.

On to “NH2-Val-Met-Cys(mSF)-Pro-Arg-Thr-Leu-Phe-Leu-OH (H-VMC(mSF)PRTLFL-OH; SMILES CSCC[C@H](NC(=O)[C@@H](N)C(C)C)C(=O)N[C@@H](CSc1cccc(S(=O)(=O)F)c1)C(=O)N1CCC[C@H]1C(=O)N[C@@H](CCCNC(=N)N)C(=O)N[C@H](C(=O)N[C@@H](CC(C)C)C(=O)N[C@@H](Cc1ccccc1)C(=O)N[C@@H](CC(C)C)C(=O)O)[C@@H](C)O) [VL9—3Cys(mSF)]”, for which the “amount of covalently bound” value in experiment [3] amounted to 73%.

In the case of “hAr-Nle-hAr-Gln-Lys(CUM)-Ala-Cha-hAr-Leu [B9_5Lys(CUM)]”, the BLI result in experiment [2] (setting [4]) is “inhibition”.

“hAr-Nle-hAr-Gln-Lys(DOTA)-Ala-Cha-hAr-Leu [B9_5Lys(DOTA)]”: the BLI result in experiment [2] (setting [4]) is “inhibition”.

Take “hAr-Nle-hAr-Gln-Lys(FITC)-Ala-Cha-hAr-Leu [B9_5Lys(FITC)]”: in experiment [2] (setting [4]), the BLI result is “inhibition”.

Regarding “hAr-Nle-hAr-Gln-Lys(TAMRA)-Ala-Cha-hAr-Leu [B9_5Lys(TAMRA)]”, the BLI result in experiment [2] (setting [4]) is reported as “inhibition”.

As to “hAr-Nle-hAr-Gln-Lys(ibu)-Ala-Cha-hAr-Leu [B9_5Lys(ibu)]”, the BLI result in experiment [2] (setting [4]) is given as “inhibition”.

In the case of “hAr-Nle-hAr-Gln-Mff-Ala-Cha-Lys(TAMRA)-Leu [B9_8Lys(TAMRA)]”, the BLI result in experiment [2] (setting [4]) is on record as “inhibition”.

Take “hAr-Nle-hAr-Gln-Mff-Ala-Cha-Lys(ibu)-Leu [B9_8Lys(ibu)]”: the BLI result in experiment [2] (setting [4]) is “inhibition”.

With “hAr-Nle-hAr-Gln-Mff-Ala-Cha-hAr-Leu-Leu-Pro-Glu-Thr-Gly-Gly [Peptide B9_LPETGG]”, the BLI result in experiment [2] (setting [4]) is given as “inhibition”.
